These results are taken from patent US20210380699A1 (published 2021).

Assay [1] deals with T1, Human PD-L1 expressed on cells (human, UniProt Q9NZQ7 19-290).
T1 construct: One entry used for transfected and natively expressing cells; also called CHO-S hPD-L1; CHO human PD-L1
Briefly: flow cytometry on CHO hPD-L1 cells, competitor biotin-PD-1-Fc. As to the method: Plates were centrifuged at 300×g for 3 minutes to supernatant aspirated. […] Cells were washed with 150 μL of PBS and centrifuged at 300 g for 3 minutes. Supernatant was aspirated and 150 μL PBS added. This wash step was repeated.
For orientation: Flow cytometry measures light scatter and fluorescence of single cells or particles in a stream.

Assay [2] concerns the target T2, Cyno PD-L1 FLAG (cynomolgus PD-L1 ECD with FLAG tag) (cynomolgus monkey).
T2 construct: also called cynomolgus monkey PD-L1-FLAG
Briefly: SPR 37C, antibody captured, PD-L1 analyte. The method, then: (§1) Label-free surface plasmon resonance (SPR) analysis was carried out on the ProteOn XPR36 (BioRad) array SPR machine. An anti-human IgG capture surface was created on a GLC biosensor chip using a combination of anti-human Fc antibodies (Jackson Labs 09-005-008,109-006-008 and 309-006-008) by amine coupling. […] The data was analysed using the 1:1 model inherent to the ProteOn XPR36 analysis software.
(§2) Label-free surface plasmon resonance (SPR) analysis was performed as per Example 4, except the assay was performed at 37° C.

Assay [3] addresses T3, Human PD-L1 His (human PD-L1 ECD with C-terminal His tag) (human, UniProt Q9NZQ7 19-238).
T3 construct: Biotinylated in ELISA and AlphaScreen assays; also called hPD-L1-his; biotinylated PD-L1 his
Briefly: SPR 37C, antibody captured, PD-L1 analyte. The method, then:
as §1, §2

In assay [4] the target is T1, Human PD-L1 expressed on cells. Briefly: flow cytometry on CHO hPD-L1 cells, competitor biotin-PD-1-Fc, n = 2. As to the method: (§3) 150 μL FACS buffer is added and cells washed as described above. […] Cells are incubated at 4° C. for 60 minutes. Cells are washed twice with 150 μL FACS buffer, centrifuging at 300 g for 3 minutes after each wash step and aspirating supernatant. Cells are fixed, washed and resuspended for analysis as above. APC signal intensity (geometric mean) is measured by flow cytometry using a Beckman Coulter CYTOFLEX instrument. Data is plotted as percentage of receptor binding.

Assay [5] has the same target. Briefly: flow cytometry on CHO hPD-L1 cells, competitor biotin-PD-1-Fc, n = 1. The method, then: as §3
In the next assay the target is T4, PD-L2-Fc (R&D Systems) (UniProt Q9BQ51 20-219, limits assumed).
T4 construct: not shown: Fc of the bought protein
T4 sequence (looked up): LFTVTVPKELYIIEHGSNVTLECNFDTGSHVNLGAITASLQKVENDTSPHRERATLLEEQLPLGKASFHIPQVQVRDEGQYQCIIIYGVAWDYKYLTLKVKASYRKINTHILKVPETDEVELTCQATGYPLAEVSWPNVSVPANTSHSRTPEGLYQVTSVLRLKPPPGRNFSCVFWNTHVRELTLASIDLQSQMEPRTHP
Briefly: DELFIA plate assay, biotinylated antibody on plate-bound PD-L2-Fc. The method, then:
Excess protein was removed by washing with PBS-Tween (0.1% v/v) and the wells were blocked with 250 μL/well Pierce Protein Free Blocking Buffer (Thermo, 37572) for 1 hour, after which plates were washed as described previously. […] 100 μL each antibody dilution was added to the plates in duplicate and incubated for 1 hour at room temperature, before washing as stated above. Antibody binding was detected using streptavidin labelled Europium (Perkin Elmer) diluted 1/1000 in DELFIA Assay buffer (Perkin Elmer). Plates were washed with TBS (Tris buffered saline)-Tween (0.1% v/v) and 50 μL/well of DELFIA Enhancement solution (Perkin Elmer) was added to the plate. Time-resolved fluorescence was measured at 615 nm on an Envision plate reader (PerkinElmer).

The target in assay [6] is T1, Human PD-L1 expressed on cells. Briefly: cell-based or functional assay.
The target of assay [7] is T3, Human PD-L1 His (human PD-L1 ECD with …). Briefly: ELISA, biotin-PD-L1 to plate-bound PD-1, antibody titrated. The method, then: Excess protein was removed by washing with PBS-Tween (0.1% v/v) and the wells were blocked with 1% w/v bovine serum albumin (BSA, Sigma) in PBS for 1 hour at room temperature, after which plates were washed as described previously. […] The plate was incubated for 30 minutes before transferring 50 μL to the coated plates. The coated plates were incubated for 1 hour at room temperature. Excess protein was removed by washing with PBS-Tween (0.1% v/v). PD-L1 binding was detected using streptavidin labelled Europium (Perkin Elmer) diluted 1/1000 in DELFIA assay buffer (Perkin Elmer). Plates were washed with TBS (Tris buffered saline)-Tween (0.1% v/v) and 50 μL/well of DELFIA Enhancement solution (Perkin Elmer) was added to the plate. Time-resolved fluorescence was measured at 615 nm on an Envision plate reader (PerkinElmer).
(ELISA stands for enzyme-linked immunosorbent assay.)

Assay [8] addresses T1, Human PD-L1 expressed on cells. Briefly: flow cytometry on CHO hPD-L1 cells, competitor biotin-CD80-Fc, n = 1. The method, then:
as §3
(§4) All other steps are performed as per plate 2.

For assay [9] the target is unchanged. Briefly: cell-based or functional assay. This is another data set of the same source.
The target is the same in assay [10]. Briefly: cell-based or functional assay. The source holds these as a separate data set.
The target is the same in assay [11]. Briefly: flow cytometry on CHO hPD-L1 cells, competitor biotin-CD80-Fc, n = 2. As to the method:
as §3, §4

T1 sequence (Q9NZQ7 19-290 limits assumed): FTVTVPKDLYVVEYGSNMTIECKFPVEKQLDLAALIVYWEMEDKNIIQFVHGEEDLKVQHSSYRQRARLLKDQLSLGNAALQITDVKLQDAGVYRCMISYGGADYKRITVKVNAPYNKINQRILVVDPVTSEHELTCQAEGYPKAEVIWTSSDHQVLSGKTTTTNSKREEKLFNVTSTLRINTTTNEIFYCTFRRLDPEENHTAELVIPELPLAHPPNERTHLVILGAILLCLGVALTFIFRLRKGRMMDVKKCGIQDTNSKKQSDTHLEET
T3 sequence (Q9NZQ7 19-238 limits assumed): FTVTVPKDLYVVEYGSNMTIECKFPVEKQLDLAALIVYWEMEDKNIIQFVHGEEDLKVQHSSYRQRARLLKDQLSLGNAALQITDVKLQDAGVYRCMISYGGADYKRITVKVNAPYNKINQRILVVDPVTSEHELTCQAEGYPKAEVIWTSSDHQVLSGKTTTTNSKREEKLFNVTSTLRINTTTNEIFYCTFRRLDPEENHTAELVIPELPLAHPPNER
T2 sequence (chain, as listed by the source limits assumed): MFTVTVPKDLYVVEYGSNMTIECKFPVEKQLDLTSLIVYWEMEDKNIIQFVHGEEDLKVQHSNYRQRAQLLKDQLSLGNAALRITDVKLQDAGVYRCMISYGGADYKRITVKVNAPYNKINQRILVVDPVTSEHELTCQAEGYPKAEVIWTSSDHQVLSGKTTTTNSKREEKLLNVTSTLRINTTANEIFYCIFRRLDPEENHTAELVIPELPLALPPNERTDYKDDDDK

B1: 84G09 (human IgG1) (antibody, V domains shown)
VH: EVQLVESGGGLVQPGRSLRLSCAASGFTFDDYAMHWVRQTPGKGLEWVSGISWKSNIIGYADSVKGRFTISRDNAKNSLYLQMNSLRAEDTALYYCARDITGSGSYGWFDPWGQGTLVTVSS
VL: DIQMTQSPSSLSASVGDRVTITCRASQSISSYLNWYQQKPGKAPKPLIYVASSLQSGVPSSFSGSGSGTDFTLTISSLQPEDFATYYCQQSYSNPITFGQGTRLEIKR
notes: also called clone 84609; lead antibody
The IC50 is the midpoint of a concentration-inhibition curve. A low value points to inhibition by little substance. The Kd is the free concentration of one partner at which half of the binding sites on the other are occupied at equilibrium, for simple one-to-one binding. For the molecule B1, the half-inhibitory concentration (IC50) in assay [1] amounted to 1.82 nM; in [4] it was 1.41 nM; in assay [5] it was 0.89 nM; in assay [7], 7.9 nM; in assay [8], 1.11 nM; in [11], 1.41 nM. In addition, the Kd in assay [2] is 0.52 nM; in [3] it was 0.43 nM. For the same molecule, the binding result with PD-L2-Fc (R&D Systems) was “no binding (tested: 10 µg/mL top concentration)”. The “EC50, IL-2 induction, murine T cell hybridoma assay, n = 1” value in assay [6] was 0.24 nM. In addition, the “EC50, IL-2 induction, murine T cell hybridoma assay, n = 2” value in [6] was 0.14 nM. Further, the “EC50, IL-2 induction, murine T cell hybridoma assay, n = 3” value in assay [6] amounted to 0.17 nM. The “EC50, ADCC reporter assay, n = 1” value in assay [9] is 0.0249 nM. Also, the “EC50, ADCC reporter assay, n = 2” value in [9] worked out at 0.0153 nM. Further, the “EC50, ADCC reporter assay, n = 3” value in [9] amounted to 0.0259 nM. Further, the “mean EC50, IFNγ induction, monocyte-T cell co-culture” value in [10] was found to be 0.081 nM.
